Experimental data reported in FireProtDB (doi:10.1021/bi00435a062).

B1: Tissue-type plasminogen activator, P00750 (parent)
chain: MDAMKRGLCCVLLLCGAVFVSPSQEIHARFRRGARSYQVICRDEKTQMIYQQHQSWLRPVLRSNRVEYCWCNSGRAQCHSVPVKSCSEPRCFNGGTCQQALYFSDFVCQCPEGFAGKCCEIDTRATCYEDQGISYRGTWSTAESGAECTNWNSSALAQKPYSGRRPDAIRLGLGNHNYCRNPDRDSKPWCYVFKAGKYSSEFCSTPACSEGNSDCYFGNGSAYRGTHSLTESGASCLPWNSMILIGKVYTAQNPSAQALGLGKHNYCRNPDGDAKPWCHVLKNRRLTWEYCDVPSCSTCGLRQYSQPQFRIKGGLFADIASHPWQAAIFAKHRRSPGERFLCGGILISSCWILSAAHCFQERFPPHHLTVILGRTYRVVPGEEEQKFEVEKYIVHKEFDDDTYDNDIALLQLKSDSSRCAQESSVVRTVCLPPADLQLPDWTECELSGYGKHEALSPFYSERLKEAHVRLYPSSRCTSQHLLNRTVTDNMLCAGDTRSGGPQANLHDACQGDSGGPLVCLNDGRMTLVGIISWGLGCGQKDVPGVYTKVTNYLDWIRDNMRP

Variants of: B1
Conditions: Homo sapiens, pH 4.5, Thermal, DSC, reversible: yes, structure 1TPK, whole UniProt chain shown
[1] = 64.3 °C, Citric acid trisodium citrate 0.1 M 0.1 M
[2] = Citric acid/trisodium citrate 0.1 M/0.1 M/

Variant	ddG of mutation (higher = less stable) [1]	heat capacity change of unfolding [1]	unfolding enthalpy (calorimetric) [1]	Tm [2]	change of melting temperature, mutant - wild type (higher = more stable) [2]	unfolding enthalpy (calorimetric) [2]
V280I	-0.3 kcal/mol	0.9 kcal/mol/K	67.5 kcal/mol	64.8 °C	0.5 °C	67.5 kcal/mol
V280M	2.2 kcal/mol			54.4 °C	-9.9 °C	67.8 kcal/mol
V280T	1 kcal/mol	0.9 kcal/mol/K		60 °C	-4.3 °C	75.1 kcal/mol
V280L	1.9 kcal/mol	0.9 kcal/mol/K		55.8 °C	-8.5 °C	70.1 kcal/mol
V280S	2.4 kcal/mol	0.9 kcal/mol/K		52.9 °C	-11.4 °C	63.4 kcal/mol
V280A				55.5 °C	-8.8 °C	72.5 kcal/mol
